Laboratory results taken from article PMC6683157.

What was measured:
[1] = target: T1, Csm2 (wild type);Psy3 (wild type) (Saccharomyces cerevisiae;Saccharomyces cerevisiae) (UniProt P40465+Q12318); assay: fluorescence anisotropy; conditions: heparin preparation, Anisotropy: 20 mM Tris pH 8.0, 20-25 nM DNA (2.5-5 nM in Fig 4d), EMSA: 25 mM Tris-HCl pH 8.0, 50 mM NaCl
T1 sequence 1: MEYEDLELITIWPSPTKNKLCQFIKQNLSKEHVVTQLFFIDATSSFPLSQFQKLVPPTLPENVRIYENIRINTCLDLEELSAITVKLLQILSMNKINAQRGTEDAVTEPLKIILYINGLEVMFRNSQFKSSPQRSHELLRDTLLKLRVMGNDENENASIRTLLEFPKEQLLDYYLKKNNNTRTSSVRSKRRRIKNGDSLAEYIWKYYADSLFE
T1 sequence 2: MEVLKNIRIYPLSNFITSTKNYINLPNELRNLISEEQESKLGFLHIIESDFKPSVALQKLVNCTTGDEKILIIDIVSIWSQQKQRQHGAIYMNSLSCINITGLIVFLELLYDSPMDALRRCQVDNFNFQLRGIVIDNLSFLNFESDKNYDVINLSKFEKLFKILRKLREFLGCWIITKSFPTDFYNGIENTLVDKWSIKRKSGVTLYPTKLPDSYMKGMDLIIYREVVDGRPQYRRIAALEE

[2] = target: T2, Csm2 (wild type);Psy3 (wild type);Shu1;Shu2 (Saccharomyces cerevisiae;Saccharomyces cerevisiae;Saccharomyces cerevisiae;Saccharomyces cerevisiae) (UniProt P40465+Q12318+P38751+P38957); assay: fluorescence anisotropy; conditions: 5 nM DNA, quadratic fit; N21 of strand 1 = THF abasic analog (ssDNA at ss/ds junction); Anisotropy: 20 mM Tris pH 8.0, 20-25 nM DNA (2.5-5 nM in Fig 4d), protein titrated from 1 M NaCl stock; EMSA: 25 mM Tris-HCl pH 8.0, 50 mM NaCl, 1 mM DTT …
T2 sequence 1: T1 sequence 1
T2 sequence 2: T1 sequence 2
T2 sequence 3: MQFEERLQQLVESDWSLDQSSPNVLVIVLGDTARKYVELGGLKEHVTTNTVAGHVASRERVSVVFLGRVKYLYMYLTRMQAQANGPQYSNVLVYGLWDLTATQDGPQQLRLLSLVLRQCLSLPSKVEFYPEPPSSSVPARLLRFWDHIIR
T2 sequence 4: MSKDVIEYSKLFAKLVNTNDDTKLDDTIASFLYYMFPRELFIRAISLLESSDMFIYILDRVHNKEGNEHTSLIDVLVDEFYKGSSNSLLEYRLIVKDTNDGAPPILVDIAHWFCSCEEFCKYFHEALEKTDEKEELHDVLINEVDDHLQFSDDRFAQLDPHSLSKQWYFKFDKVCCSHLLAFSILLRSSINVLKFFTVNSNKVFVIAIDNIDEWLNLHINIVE

[3] = N31 of strand 1 = THF abasic analog, protein titrated from 1 M NaCl …, 1 mM DTT, 100 u
[4] = N20 of strand 1 = THF abasic analog, protein titrated from 1 M NaCl …, 1 mM DTT, 100 u

## CAGTGCCGAAGCTTGTCAAGNTTTTTTTTTTTTTTTTTTT / TTTTTTTTTTTTTTTTTTTTCTTGACAAGCTTGCGCACTG [AP6 double-flap]
[1]; text gives 71, N21 of strand 1 = THF abasic analog (ssDNA at ss/ds junction), protein titrated from 1 M NaCl stock, 1 mM DTT …
  Kd: 72 nM
[2]
  Kd: 72 nM

## CAGTGCCGAAGCTTGTCAAGTTTTTTTTTTNTTTTTTTTT / TTTTTTTTTTTTTTTTTTTTCTTGACAAGCTTGCGCACTG [AP5 double-flap]
[1]; [3]
  Kd: 142 nM

## CAGTGCCGAAGCTTGTCAANTTTTTTTTTTTTTTTTTTTT / TTTTTTTTTTTTTTTTTTTTCTTGACAAGCTTGCGCACTG [AP7 double-flap]
[1]; [4]
  Kd: 112 nM

## CAGTGCCGANGCTTGTCAAGTTTTTTTTTTTTTTTTTTTT / TTTTTTTTTTTTTTTTTTTTCTTGACAAGCTTGCGCACTG [AP8 double-flap]
[1]; N10 of strand 1 = THF abasic analog (in dsDNA), protein titrated from 1 M NaCl stock, 1 mM DTT …
  Kd: 153 nM

## TTTTTTTTTNTTTTTTTTTTCTTGACAAGCTTGCGCACTG / CAGTGCGCAAGCTTGTCAAGTTTTTTTTTTTTTTTTTTTT [AP1 double-flap]
[1]; N10 of strand 1 = THF abasic analog (dSpacer), protein titrated from 1 M NaCl stock, 1 mM DTT …
  Kd: 105 nM

## TTTTTTTTTTTTTTTTTTTNCTTGACAAGCTTGCGCACTG / CAGTGCGCAAGCTTGTCAAGTTTTTTTTTTTTTTTTTTTT [AP2 double-flap]
[1]; [4]
  Kd: 127 nM

## TTTTTTTTTTTTTTTTTTTTCTTGACAAGCNTGCGCACTG / CAGTGCGCAAGCTTGTCAAGTTTTTTTTTTTTTTTTTTTT [AP4 double-flap]
[1]; [3]
  Kd: 131 nM

## TTTTTTTTTTTTTTTTTTTTNTTGACAAGCTTGCGCACTG / CAGTGCGCAAGCTTGTCAAGTTTTTTTTTTTTTTTTTTTT [AP3 double-flap]
[1]; N21 of strand 1 = THF abasic analog, protein titrated from 1 M NaCl …, 1 mM DTT, 100 u
  Kd: 104 nM
